The RNAGym collection of RNA variant scans (doi:10.1073/pnas.2313332121)

B1: TPR t1 (parent)
chain: GACCAAUCUGCCCUCAGAGCUCGAGAACAUCUUCGGAUGCAGAGGAGGCAGGCUUCGGUGGCGCGAUAGCGCCAACGUCCUCAACCUCCAAUGCAUCCCACCACAUGAUGAUGCCUGAAGAGCCUUGGUUUUUUG

Variants of: B1
Assay: polymerase ribozyme fitness, log enrichment relative to wild type (log ratio); higher = more active; in vitro selection for triplet polymerase activity
Method in brief: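 Mutant libraries for each subunit of a heterodimeric triplet polymerase ribozyme were made by PCR and then transcribed. Each library underwent one round of in vitro selection in triplicate: annealing with a biotinylated primer, the partner subunit and triplets, frozen incubation at −7 °C, gel excision of extended constructs, streptavidin-bead capture and RT-PCR. Input and output libraries were Illumina-sequenced, and only genotypes with ≥10 input reads and ≥1 read per output were kept. Fitness is the logarithm, base 2, of genotype enrichment over wild-type enrichment, computed from inverse-variance-weighted replicate averages.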

Compared with G71C C94A, A37G G60A C102U is higher in “polymerase ribozyme fitness (log ratio)” value: -4.08 for the first, -3.61 for the second.

First: C8G U30C G60C
Second: C62G C102A C115A
The “polymerase ribozyme fitness (log ratio)” value of the first is lower: -4.49 for the first, -2.67 for the second.

First: C4G C8G C11A U14G G69C C124U
Second: C72G C124G
The “polymerase ribozyme fitness (log ratio)” value of the first is lower: -2.77 for the first, 1.51 for the second.

Compared with C64U U116G G117C, A5G U133A is higher in “polymerase ribozyme fitness (log ratio)” value: -2.86 for the first, -0.954 for the second.

Going from C101U A108U U109G to G52A G57A A66U G127C, the “polymerase ribozyme fitness (log ratio)” value rises from -6.14 to -3.31.

First: C40U C124G
Second: A5U U7G G47A C72A
The “polymerase ribozyme fitness (log ratio)” value of the first is higher: 1.52 for the first, -0.365 for the second.

Compared with C15U G52C C62G U78A, U21C C22G C34A C49A A84G C123U U125G U133C is lower in “polymerase ribozyme fitness (log ratio)” value: -3.9 for the first, -4.3 for the second.

Going from G61U C73U A121G to A41C C70A A118G, the “polymerase ribozyme fitness (log ratio)” value falls from 0.407 to -3.8.

Going from G48A G63U C82G A91U G117C to C11G C56U U87C, the “polymerase ribozyme fitness (log ratio)” value rises from -5.43 to 0.175.

First: U129C
Second: A50U G61U
The “polymerase ribozyme fitness (log ratio)” value of the first is higher: -0.185 for the first, -0.766 for the second.

First: A74G G113A
Second: A18G C70U
The “polymerase ribozyme fitness (log ratio)” value of the first is higher: -1.8 for the first, -2.4 for the second.

Going from C12A U78A to C15A G23U C72G C98A C114G U116A, the “polymerase ribozyme fitness (log ratio)” value falls from -1.37 to -7.66.

First: C40G C64U U81A
Second: G57U C72U A83U A111U
The “polymerase ribozyme fitness (log ratio)” value of the first is higher: -2.3 for the first, -4.12 for the second.

Going from U9A C34A C72A C102U C123A G128U to G51C G61U C64A C79A G117A U133G, the “polymerase ribozyme fitness (log ratio)” value falls from -1.61 to -6.91.

Going from A43U G48U G120U to U14G G44C C80U, the “polymerase ribozyme fitness (log ratio)” value falls from -2.2 to -3.74.

First: C3U C49A G63A C80U G93A
Second: G17A G63A
The “polymerase ribozyme fitness (log ratio)” value of the first is lower: -5.66 for the first, -4.79 for the second.

First: C11G G42C A95U
Second: C15U G17A G19A U38G G69C A75U U92G U109C C124U U134G
The “polymerase ribozyme fitness (log ratio)” value of the first is higher: -1.3 for the first, -5.8 for the second.

First: C3U C40U G60U
Second: C15A C53U G63C
The “polymerase ribozyme fitness (log ratio)” value of the first is higher: 0.0261 for the first, -2.5 for the second.

Compared with U109C C114U, A5C A18C C123A U130A is higher in “polymerase ribozyme fitness (log ratio)” value: -4.7 for the first, -1.87 for the second.

First: G44A C49A C73U U116C
Second: A29G G52U
The “polymerase ribozyme fitness (log ratio)” value of the first is lower: -2.91 for the first, -1.55 for the second.

First: C20U A27C A84U C123A
Second: A6U C11G
The “polymerase ribozyme fitness (log ratio)” value of the first is lower: -5.42 for the first, 0.392 for the second.

Compared with G10U C56A, G47A G93U G113U C123U G135U is lower in “polymerase ribozyme fitness (log ratio)” value: 0.154 for the first, -6.04 for the second.

Going from G51U G61C to C53A A105U, the “polymerase ribozyme fitness (log ratio)” value rises from -3.56 to -2.72.

Compared with C3A C28U G63C, C4G U9G G61U G120C is higher in “polymerase ribozyme fitness (log ratio)” value: -3.87 for the first, 0.941 for the second.

First: G63C U78A G110U
Second: A26G G45C A75U
The “polymerase ribozyme fitness (log ratio)” value of the first is higher: -3.31 for the first, -4.25 for the second.

Going from C8A C62U to C114G G127A, the “polymerase ribozyme fitness (log ratio)” value falls from 0.19 to -4.97.

Compared with C20A G120U, C8A C124A is higher in “polymerase ribozyme fitness (log ratio)” value: -2.44 for the first, 2.16 for the second.

First: G42U A46U U96G
Second: G47C G69U C72U
The “polymerase ribozyme fitness (log ratio)” value of the first is lower: -2.26 for the first, -1.29 for the second.

First: G45A G63C
Second: U9G G65A C72G G122A C123G U129G
The “polymerase ribozyme fitness (log ratio)” value of the first is higher: -0.827 for the first, -5.67 for the second.

Compared with G57U C82G G110U, G45C G58A is higher in “polymerase ribozyme fitness (log ratio)” value: -2.25 for the first, -0.146 for the second.

Going from U9G C62G G120C to G60A C62U U112G, the “polymerase ribozyme fitness (log ratio)” value falls from 0.877 to 0.38.

First: C11G G61C U78A U126A
Second: U9G U21A C97A
The “polymerase ribozyme fitness (log ratio)” value of the first is higher: -0.897 for the first, -4.03 for the second.

Going from C12G G48A G60A G93A to A37C A46C C62U U78G, the “polymerase ribozyme fitness (log ratio)” value falls from -1.03 to -1.66.

First: A6G A50C C70G
Second: C8G C28A U130A
The “polymerase ribozyme fitness (log ratio)” value of the first is higher: -3 for the first, -5.09 for the second.

First: A5C G35A A41U U112A
Second: A26U G52A U112A U131C
The “polymerase ribozyme fitness (log ratio)” value of the first is lower: -5.8 for the first, -2.99 for the second.

Going from A27U C79G G127U to C3U G48U G61C G65U G71A, the “polymerase ribozyme fitness (log ratio)” value rises from -4.93 to -4.29.

Going from C28A G42A G77C G110U to U9A C49A C72A A100U, the “polymerase ribozyme fitness (log ratio)” value rises from -1.22 to -0.384.

Going from C80U C123A to A46C G93U U106A, the “polymerase ribozyme fitness (log ratio)” value falls from -0.37 to -1.93.

Compared with C31U G113A, U7G U32A A46U G77A C104A A105U C123G is lower in “polymerase ribozyme fitness (log ratio)” value: -3.94 for the first, -4.45 for the second.

Going from C4U U59A to C8G C22A C53U C89A C114U G117A G135A, the “polymerase ribozyme fitness (log ratio)” value falls from -0.304 to -3.7.

First: A5C C49U C53A
Second: C40A C89U G117A A121G
The “polymerase ribozyme fitness (log ratio)” value of the first is lower: -1.24 for the first, -0.101 for the second.

With U55A C79G the “polymerase ribozyme fitness (log ratio)” value was -0.669.
